Source: publication PMC11456856

Biological target: human FcRider (afucosylated two-unit tandem hIgG1 Fc joined by the trimerization sequence Foldon)
Assay: native gel or EMSA; blue native PAGE, 1.5 h at 150 V in NativePAGE running buffer; hFcRider purified by Protein A column; monomer ~65 kDa in reducing SDS-PAGE

human FcRider (afucosylated two-unit tandem hIgG1 Fc joined by the trimerization sequence Foldon)
stoichiometry N: 6
